# Test results as given in US20210341478A1 (ANTAIMMU BIOMED, published 2021).
# B1: NP-3 IgG (antibody, V domains shown)
# VH: EVQLVESGGGLVQPGGSLRLSCAASGFTITDYGIHWVRQAPGKGLEWVAYIGPSDGDTHYADSVKGRFTISADTSKNTAYLQMNSLRAEDTAVYYCARTGGYNSWYMDYWGQGTLVTVSS
# VL: DIQMTQSPSSLSASVGDRVTITCRASQDVNNWVAWYQQKPGKAPKLLIYFTSYLYSGVPSRFSGSGSGTDFTLTISSLQPEDFATYYCQQHSTYPFTFGQGTKVEIKR
# B2: NP-4 IgG (antibody, V domains shown)
# VH: EVQLVESGGGLVQPGGSLRLSCAASGFTITNWWIHWVRQAPGKGLEWVAAISPFNGKTHYADSVKGRFTISADTSKNTAYLQMNSLRAEDTAVYYCARLLSIYDYWGQGTLVTVSS
# VL: DIQMTQSPSSLSASVGDRVSITCRASQDVWYYVAWYQQKPGKAPKLLISRTNWLDSGVPSRFSGSGSGTDFTLTISSLQPEDFATYYCQQYSDYPLTFGQGTKVEIKR
# Target: T1, nucleocapsid protein of SARS-CoV-2 expressed in HEK-293 cells (SARS-CoV-2, UniProt P0DTC9 1-419)
# T1 construct: also called 293-NP; 293-NP cell lysates
# Assay: ELISA on HEK-293 lysate 293-NP (FIG. 3)
row,Binder,binding result
1,B1,binds
2,B2,binds
